{"source": "the supplement of paper PMC11246515", "assay": "total protein half-life in vivo (active degradation + dilution); higher = more stable protein", "key": {"[1]": {"settings": "E. coli NCM3722 delta-clpP delta-lon delta-hslV, growth: N-lim chemostat, doubling time 6 h"}, "[2]": {"settings": "E. coli NCM3722 delta-clpP, growth: N-lim chemostat, doubling time 6 h"}, "[3]": {"settings": "E. coli NCM3722 delta-hslV, growth: N-lim chemostat, doubling time 6 h"}, "[4]": {"settings": "E. coli NCM3722 delta-lon, growth: N-lim chemostat, doubling time 6 h"}, "[5]": {"settings": "E. coli NCM3722 delta-smpB, growth: N-lim chemostat, doubling time 6 h"}, "[6]": {"settings": "wild type E. coli NCM3722, growth: C-lim chemostat, doubling time 6 h"}, "[7]": {"settings": "wild type E. coli NCM3722, growth: C-lim chemostat, doubling time 12 h"}, "[8]": {"settings": "wild type E. coli NCM3722, growth: N-lim chemostat, doubling time 6 h"}, "[9]": {"settings": "wild type E. coli NCM3722, growth: N-lim chemostat, doubling time 12 h"}, "[10]": {"settings": "wild type E. coli NCM3722, growth: P-lim chemostat, doubling time 6 h"}, "[11]": {"settings": "wild type E. coli NCM3722, growth: P-lim chemostat, doubling time 12 h"}, "[12]": {"settings": "wild type E. coli NCM3722, growth: C-lim chemostat, doubling time 3 h"}}, "note": "± gives the standard deviation of the averaged measurements.", "data": [{"sequence": "MKTVVFAYHDMGCLGIEALLAAGYEISAIFTHTDNPGEKAFYGSVARLAAERGIPVYAPDNVNHPLWVERIAQLSPDVIFSFYYRHLIYDEILQLAPAGAFNLHGSLLPKYRGRAPLNWVLVNGETETGVTLHRMVKRADAGAIVAQLRIAIAPDDIAITLHHKLCHAARQLLEQTLPAIKHGNILEIAQRENEATCFGRRTPDDSFLEWHKPASVLHNMVRAVADPWPGAFSYVGNQKFTVWSSRVHPHASKAQPGSVISVAPLLIACGDGALEIVTGQAGDGITMQGSQLAQTLGLVQGSRLNSQPACTARRRTRVLILGVNGFIGNHLTERLLREDHYEVYGLDIGSDAISRFLNHPHFHFVEGDISIHSEWIEYHVKKCDVVLPLVAIATPIEYTRNPLRVFELDFEENLRIIRYCVKYRKRIIFPSTSEVYGMCSDKYFDEDHSNLIVGPVNKPRWIYSVSKQLLDRVIWAYGEKEGLQFTLFRPFNWMGPRLDNLNAARIGSSRAITQLILNLVEGSPIKLIDGGKQKRCFTDIRDGIEALYRIIENAGNRCDGEIINIGNPENEASIEELGEMLLASFEKHPLRHHFPPFAGFRVVESSSYYGKGYQDVEHRKPSIRNAHRCLDWEPKIDMQETIDETLDFFLRTVDLTDKPS", "values": [{"measurement": "total protein half-life in vivo", "setting": "[1]", "result": "5.15 ± 0.03", "unit": "h"}, {"measurement": "total protein half-life in vivo", "setting": "[2]", "result": "3.11 ± 0.24", "unit": "h"}, {"measurement": "total protein half-life in vivo", "setting": "[3]", "result": "2.84 ± 0.19", "unit": "h"}, {"measurement": "total protein half-life in vivo", "setting": "[4]", "result": "3.86 ± 0.1", "unit": "h"}, {"measurement": "total protein half-life in vivo", "setting": "[5]", "result": "3.13 ± 0.3", "unit": "h"}, {"measurement": "total protein half-life in vivo", "setting": "[6]", "result": "4.8816 ± 0.00064", "unit": "h"}, {"measurement": "total protein half-life in vivo", "setting": "[7]", "result": "10.4 ± 1.2", "unit": "h"}, {"measurement": "total protein half-life in vivo", "setting": "[8]", "result": "2.93 ± 0.43", "unit": "h"}, {"measurement": "total protein half-life in vivo", "setting": "[9]", "result": "4.61 ± 0.62", "unit": "h"}, {"measurement": "total protein half-life in vivo", "setting": "[10]", "result": "5.82 ± 0.22", "unit": "h"}, {"measurement": "total protein half-life in vivo", "setting": "[11]", "result": "11.65 ± 0.019", "unit": "h"}]}, {"sequence": "MKVAVLGAAGGIGQALALLLKTQLPSGSELSLYDIAPVTPGVAVDLSHIPTAVKIKGFSGEDATPALEGADVVLISAGVARKPGMDRSDLFNVNAGIVKNLVQQVAKTCPKACIGIITNPVNTTVAIAAEVLKKAGVYDKNKLFGVTTLDIIRSNTFVAELKGKQPGEVEVPVIGGHSGVTILPLLSQVPGVSFTEQEVADLTKRIQNAGTEVVEAKAGGGSATLSMGQAAARFGLSLVRALQGEQGVVECAYVEGDGQYARFFSQPLLLGKNGVEERKSIGTLSAFEQNALEGMLDTLKKDIALGEEFVNK", "values": [{"measurement": "total protein half-life in vivo", "setting": "[1]", "result": "4.53 ± 0.53", "unit": "h"}, {"measurement": "total protein half-life in vivo", "setting": "[2]", "result": "3.92 ± 0.44", "unit": "h"}, {"measurement": "total protein half-life in vivo", "setting": "[3]", "result": "3.803 ± 0.013", "unit": "h"}, {"measurement": "total protein half-life in vivo", "setting": "[4]", "result": "4.42 ± 0.25", "unit": "h"}, {"measurement": "total protein half-life in vivo", "setting": "[5]", "result": "3.84 ± 0.068", "unit": "h"}, {"measurement": "total protein half-life in vivo", "setting": "[12]", "result": "3.039 ± 0.028", "unit": "h"}, {"measurement": "total protein half-life in vivo", "setting": "[6]", "result": "5.65 ± 0.34", "unit": "h"}, {"measurement": "total protein half-life in vivo", "setting": "[7]", "result": "9.69 ± 0.74", "unit": "h"}, {"measurement": "total protein half-life in vivo", "setting": "[8]", "result": "3.98 ± 0.16", "unit": "h"}, {"measurement": "total protein half-life in vivo", "setting": "[9]", "result": "6.2 ± 0.2", "unit": "h"}, {"measurement": "total protein half-life in vivo", "setting": "[10]", "result": "5.94 ± 0.074", "unit": "h"}, {"measurement": "total protein half-life in vivo", "setting": "[11]", "result": "11.8 ± 0.51", "unit": "h"}]}, {"sequence": "MKVIIVEDEFLAQQELSWLIKEHSQMEIVGTFDDGLDVLKFLQHNRVDAIFLDINIPSLDGVLLAQNISQFAHKPFIVFITAWKEHAVEAFELEAFDYILKPYQESRITGMLQKLEAAWQQQQTSSTPAATVTRENDTINLVKDERIIVTPINDIYYAEAHEKMTFVYTRRESYVMPMNITEFCSKLPPSHFFRCHRSFCVNLNKIREIEPWFNNTYILRLKDLDFEVPVSRSKVKEFRQLMHL [P0AE39]", "values": [{"measurement": "total protein half-life in vivo", "setting": "[1]", "result": "5.23 ± 0.21", "unit": "h"}, {"measurement": "total protein half-life in vivo", "setting": "[2]", "result": "4.51 ± 0.32", "unit": "h"}, {"measurement": "total protein half-life in vivo", "setting": "[3]", "result": "4.019 ± 0.0042", "unit": "h"}, {"measurement": "total protein half-life in vivo", "setting": "[4]", "result": "4.73 ± 0.72", "unit": "h"}, {"measurement": "total protein half-life in vivo", "setting": "[5]", "result": "4.01 ± 0.061", "unit": "h"}, {"measurement": "total protein half-life in vivo", "setting": "[12]", "result": "2.8 ± 0.42", "unit": "h"}, {"measurement": "total protein half-life in vivo", "setting": "[6]", "result": "6 ± 0.71", "unit": "h"}, {"measurement": "total protein half-life in vivo", "setting": "[7]", "result": "8.85 ± 0.64", "unit": "h"}, {"measurement": "total protein half-life in vivo", "setting": "[8]", "result": "4.44 ± 0.42", "unit": "h"}, {"measurement": "total protein half-life in vivo", "setting": "[9]", "result": "7.31 ± 0.66", "unit": "h"}, {"measurement": "total protein half-life in vivo", "setting": "[10]", "result": "4.93 ± 0.72", "unit": "h"}, {"measurement": "total protein half-life in vivo", "setting": "[11]", "result": "9.66 ± 0.46", "unit": "h"}]}, {"sequence": "MKVLIVESEFLHQDTWVGNAVERLADALSQQNVTVIKSTSFDDGFAILSSNEAIDCLMFSYQMEHPDEHQNVRQLIGKLHERQQNVPVFLLGDREKALAAMDRDLLELVDEFAWILEDTADFIAGRAVAAMTRYRQQLLPPLFSALMKYSDIHEYSWAAPGHQGGVGFTKTPAGRFYHDYYGENLFRTDMGIERTSLGSLLDHTGAFGESEKYAARVFGADRSWSVVVGTSGSNRTIMQACMTDNDVVVVDRNCHKSIEQGLMLTGAKPVYMVPSRNRYGIIGPIYPQEMQPETLQKKISESPLTKDKAGQKPSYCVVTNCTYDGVCYNAKEAQDLLEKTSDRLHFDEAWYGYARFNPIYADHYAMRGEPGDHNGPTVFATHSTHKLLNALSQASYIHVREGRGAINFSRFNQAYMMHATTSPLYAICASNDVAVSMMDGNSGLSLTQEVIDEAVDFRQAMARLYKEFTADGSWFFKPWNKEVVTDPQTGKTYDFADAPTKLLTTVQDCWVMHPGESWHGFKDIPDNWSMLDPIKVSILAPGMGEDGELEETGVPAALVTAWLGRHGIVPTRTTDFQIMFLFSMGVTRGKWGTLVNTLCSFKRHYDANTPLAQVMPELVEQYPDTYANMGIHDLGDTMFAWLKENNPGARLNEAYSGLPVAEVTPREAYNAIVDNNVELVSIENLPGRIAANSVIPYPPGIPMLLSGENFGDKNSPQVSYLRSLQSWDHHFPGFEHETEGTEIIDGIYHVMCVKA", "values": [{"measurement": "total protein half-life in vivo", "setting": "[1]", "result": "5.82 ± 0.47", "unit": "h"}, {"measurement": "total protein half-life in vivo", "setting": "[2]", "result": "4.96 ± 1.1", "unit": "h"}, {"measurement": "total protein half-life in vivo", "setting": "[3]", "result": "6.09 ± 0.29", "unit": "h"}, {"measurement": "total protein half-life in vivo", "setting": "[4]", "result": "5.74 ± 0.22", "unit": "h"}, {"measurement": "total protein half-life in vivo", "setting": "[5]", "result": "5.38 ± 0.21", "unit": "h"}, {"measurement": "total protein half-life in vivo", "setting": "[12]", "result": "3.193 ± 0.023", "unit": "h"}, {"measurement": "total protein half-life in vivo", "setting": "[6]", "result": "5.14 ± 0.23", "unit": "h"}, {"measurement": "total protein half-life in vivo", "setting": "[7]", "result": "11.5 ± 0.12", "unit": "h"}, {"measurement": "total protein half-life in vivo", "setting": "[8]", "result": "6.03 ± 0.28", "unit": "h"}, {"measurement": "total protein half-life in vivo", "setting": "[9]", "result": "12.1 ± 2", "unit": "h"}, {"measurement": "total protein half-life in vivo", "setting": "[10]", "result": "6.14 ± 0.3", "unit": "h"}, {"measurement": "total protein half-life in vivo", "setting": "[11]", "result": "11.5 ± 0.15", "unit": "h"}]}, {"sequence": "MKVSVPGMPVTLLNMSKNDIYKMVSGDKMDVKMNIFQRLWETLRHLFWSDKQTEAYKLLFNFVNNQTGNINASEYFTGAINENEREKFINSLELFNKLKTCAKNPDELVAKGNMRWVAQTFGDIELSVTFFIEKNKICTQTLQLHKGQGNLGVDLRKAYLPGVDMRDCYLGKKTMKGSNDILYERPGWNANLGVLPRTVLPRTVLTRTVLTWTVLP", "values": [{"measurement": "total protein half-life in vivo", "setting": "[1]", "result": 4.07, "unit": "h"}]}, {"sequence": "MKWDWIFFDADETLFTFDSFTGLQRMFLDYSVTFTAEDFQDYQAVNKPLWVDYQNGAITSLQLQHGRFESWAERLNVEPGKLNEAFINAMAEICTPLPGAVSLLNAIRGNAKIGIITNGFSALQQVRLERTGLRDYFDLLVISEEVGVAKPNKKIFDYALEQAGNPDRSRVLMVGDTAESDILGGINAGLATCWLNAHHREQPEGIAPTWTVSSLHELEQLLCKH [P0A8Y1]", "values": [{"measurement": "total protein half-life in vivo", "setting": "[1]", "result": "5.28 ± 0.098", "unit": "h"}, {"measurement": "total protein half-life in vivo", "setting": "[2]", "result": 0.513, "unit": "h"}, {"measurement": "total protein half-life in vivo", "setting": "[4]", "result": 0.534, "unit": "h"}, {"measurement": "total protein half-life in vivo", "setting": "[5]", "result": "0.471 ± 0.024", "unit": "h"}, {"measurement": "total protein half-life in vivo", "setting": "[12]", "result": "0.631 ± 0.016", "unit": "h"}, {"measurement": "total protein half-life in vivo", "setting": "[6]", "result": 0.671, "unit": "h"}, {"measurement": "total protein half-life in vivo", "setting": "[7]", "result": 2.97, "unit": "h"}, {"measurement": "total protein half-life in vivo", "setting": "[8]", "result": 1.11, "unit": "h"}, {"measurement": "total protein half-life in vivo", "setting": "[9]", "result": 1.51, "unit": "h"}, {"measurement": "total protein half-life in vivo", "setting": "[10]", "result": "0.949 ± 0.33", "unit": "h"}]}]}
